For four substances, geomean results are on record in patent US20200325224A1.

The target in the first assay is human CD3 epsilon (on human T cells / CD3-positive Jurkat E6-1 cells) (human) (UniProt P07766). Nature of the assay: FACS on expanded human T cells (hum PBL), antibody at 1 µg/ml, Alexa488-labelled secondary antibody, geomean of fluorescence.
Chain of human CD3 epsilon (on human T cells / CD3-positive Jurkat E6-1 cells) (human) (P07766 23-207 limits assumed): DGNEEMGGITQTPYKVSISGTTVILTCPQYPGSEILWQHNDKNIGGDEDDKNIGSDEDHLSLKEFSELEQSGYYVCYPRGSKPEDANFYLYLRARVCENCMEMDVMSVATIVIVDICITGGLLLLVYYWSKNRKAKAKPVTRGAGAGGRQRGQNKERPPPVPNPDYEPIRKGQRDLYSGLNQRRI
As for anti-CD3 reference antibody SP34-2, the geomean at 1 µg/ml is 9610.

Regarding Iso rb (antibody), the geomean at 1 µg/ml came to 39.

In turn, M-IgG1 (antibody) had a geomean at 1 µg/ml of 42.

For the substance hu-IgG1 (antibody), the geomean at 1 µg/ml turned out to be 56.

A further assay has the same target. In words: FACS on expanded human T cells (hum PBL), antibody at 10 µg/ml, Alexa488-labelled secondary antibody, geomean of fluorescence.
Substance anti-CD3 reference antibody SP34-2 came in with a geomean at 10 µg/ml of 15900.

In turn, Iso rb (antibody) had a geomean at 10 µg/ml of 47.

Regarding M-IgG1 (antibody), the geomean at 10 µg/ml was determined as 44.

As to hu-IgG1 (antibody), the geomean at 10 µg/ml stood at 85.

The target of another assay is cynomolgus CD3 epsilon (on expanded cynomolgus T cells) (cynomolgus) (UniProt Q95LI5). In words: FACS on expanded cynomolgus T cells (cyno PBL), antibody at 10 µg/ml, Alexa488-labelled secondary antibody, geomean of fluorescence.
Chain of cynomolgus CD3 epsilon (on expanded cynomolgus T cells) (cynomolgus) (Q95LI5 22-197 limits assumed): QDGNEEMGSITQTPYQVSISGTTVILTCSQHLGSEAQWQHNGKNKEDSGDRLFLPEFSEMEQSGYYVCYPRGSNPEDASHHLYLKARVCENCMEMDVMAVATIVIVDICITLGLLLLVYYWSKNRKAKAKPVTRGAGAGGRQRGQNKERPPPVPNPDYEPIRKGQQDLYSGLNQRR
For the substance anti-CD3 reference antibody SP34-2, the geomean at 10 µg/ml came out at 19500.

Take Iso rb (antibody): the geomean at 10 µg/ml was 40.

For M-IgG1 (antibody), the geomean at 10 µg/ml was 34.

As to hu-IgG1 (antibody), the geomean at 10 µg/ml stood at 67.

Another assay shares this target. Nature of the assay: FACS on expanded cynomolgus T cells (cyno PBL), antibody at 0.1 µg/ml, Alexa488-labelled secondary antibody, geomean of fluorescence.
anti-CD3 reference antibody SP34-2: the geomean at 0.1 µg/ml stood at 5000.

Turning to Iso rb (antibody), the geomean at 0.1 µg/ml was 37.

In turn, M-IgG1 (antibody) showed a geomean at 0.1 µg/ml of 33.

Consider hu-IgG1 (antibody), for which the geomean at 0.1 µg/ml worked out at 61.

A further assay has the same target. Nature of the assay: FACS on expanded cynomolgus T cells (cyno PBL), antibody at 1 µg/ml, Alexa488-labelled secondary antibody, geomean of fluorescence.
In turn, anti-CD3 reference antibody SP34-2 came in with a geomean at 1 µg/ml of 16500.

Iso rb (antibody) yielded a geomean at 1 µg/ml of 38.

Turning to M-IgG1 (antibody), the geomean at 1 µg/ml was 33.

hu-IgG1 (antibody) gave a geomean at 1 µg/ml of 64.

In the next assay the target is human CD3 epsilon (on human T cells / CD3-positive Jurkat E6-1 cells) (human) (UniProt P07766). In words: FACS on expanded human T cells (hum PBL), antibody at 0.1 µg/ml, Alexa488-labelled secondary antibody, geomean of fluorescence.
Regarding anti-CD3 reference antibody SP34-2, the geomean at 0.1 µg/ml came to 2610.

Iso rb (antibody) came in with a geomean at 0.1 µg/ml of 43.

In turn, M-IgG1 (antibody) yielded a geomean at 0.1 µg/ml of 40.

hu-IgG1 (antibody): the geomean at 0.1 µg/ml is 54.
